In one test the target is T1, human CD3 E&D protein (human, UniProt P07766 23-126; P04234 22-105).
T1 construct: Soluble CD3 epsilon and delta protein immobilised on the chip; also called Humanized CD3 E&D; humanized CD3 E&D protein
The test is described as follows: SPR (Biacore 8K), CD3 E&D immobilised by amino coupling, antibody as analyte, 1:1 fit. As to the method: The affinity and kinetic properties of the bispecific antibodies to human CD3 E&D proteins were determined by surface plasmon resonance (SPR) using a Biacore 8K instrument. The human CD3 E&D protein was immobilized on the experimental channel of CMS chip by amino coupling, then the antibody to be tested was subjected to doubling dilution to serial concentrations, flowed through the surfaces of an experimental channel and a reference channel successively for binding, followed by dissociation, the binding and dissociation curve of each sample was obtained, and the results were analyzed and evaluated by Biacore Insight Evaluation software.
The bispecific antibodies of the present disclosure were diluted to 400 nM with 1×HBS-EP+ (10 mM HEPES, pH 7.4, 150 mM NaCl, 3 mM EDTA, 0.05% P20) running buffer, then subjected to doubling dilution to 1.56 nM with this buffer, thus obtaining antibody solutions in a range of concentrations from 400 nM to 1.56 nM. At the end of each experiment, the chip was regenerated by washing with 3M MgCl₂ solution at a flow rate of 30 μL/min for 30 s to remove captured antibody together with antigen. The raw data were analyzed using Biacore Insight Evaluation Software (version 2.0.15.12933) with a 1:1 fit model and affinity and kinetic experimental data of the resulting bispecific antibodies were shown in Table 4.
Background: In SPR one partner is held on a chip, and binding of the other changes the refractive index at the surface.

Test [1] addresses T2, human CD3 (hCD3) naturally expressed on Jurkat cells (human, UniProt P07766 23-207).
T2 construct: whole, on cells; CD3 on cells is a complex of several chains; also called CD3 receptors on Jurkat-NFAT cells
The test is described as follows: FACS on Jurkat cells. How it is done:
(§1) The binding situation of the anti-CD3-CLDN18.2 bispecific antibodies to stably-transfected HEK293 cells expressing hCLDN18.2 (HEK293-hCLDN18.2) and T lymphocytes naturally expressing hCD3 (Jurkat) were detected by using FACS.
(§2) HEK293-hCLDN18.2 or Jurkat cells were collected and re-suspended with FACS buffer (PBS+1% BSA+0.5 mM EDTA), after adjusting the cell concentration, 1E5 cells per well were added into a 96-well plate, and then the antibody after gradient dilution was added according to the preset concentration, wherein the negative control was human IgG1AA (Negative-IgG1AA), the positive control of CLDN18.2 was antibody 6#AA, and the positive control of CD3 was antibody h160C9AA. Following incubation in a 4° C. shaking table for 2 h, the mixture was centrifugally washed twice with FACS buffer, added with fluorescently labeled anti-human IgG secondary antibody, 100 μL per well; after incubation in a 4° C. shaking table for 1 h, the mixture was centrifugally washed twice with FACS buffer, the cells were filtered to a 96-well plate, and then the prepared sample was detected on a flow cytometer; the mean fluorescence intensity (hereinafter referred to as MFI) for each concentration was calculated by software, and then the median effective concentration (hereinafter referred to as EC₅₀) and the top mean fluorescence intensity (Top MFI) were calculated by GraphPad software, and the results were shown in Table 3.

Test [2] deals with T3, human Claudin 18.2 (hCLDN18.2) on stably-transfected HEK293 cells (human, UniProt P56856-2 1-261).
T3 sequence (looked up): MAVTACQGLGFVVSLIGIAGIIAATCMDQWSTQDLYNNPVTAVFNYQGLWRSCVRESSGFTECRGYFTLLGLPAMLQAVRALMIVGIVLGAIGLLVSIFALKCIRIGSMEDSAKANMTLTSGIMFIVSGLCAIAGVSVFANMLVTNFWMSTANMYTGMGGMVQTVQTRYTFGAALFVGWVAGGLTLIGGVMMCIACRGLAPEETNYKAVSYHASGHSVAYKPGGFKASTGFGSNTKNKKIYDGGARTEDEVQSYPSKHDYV
The test is described as follows: cell-based or functional assay.

Test [3] has as its target T3, human Claudin 18.2 (hCLDN18.2) on …. Put plainly: cell-based or functional assay. This is another data set of the same source.
For test [4] the target is unchanged. The test is described as follows: FACS on HEK293-hCLDN18.2 cells. How it is done: as §1, §2
Test [5] concerns the target T4, Cynomolgus macaques Claudin 18 (cynoCLDN18) on stably-transfected HEK293 cells (Cynomolgus macaques, UniProt A0A2K5VVB4 1-261).
T4 chain: T3 sequence (looked up) with I240T, R246H, V251L
The test is described as follows: FACS on HEK293-cynoCLDN18 cells.

For test [6], the target named is T2, human CD3 (hCD3) naturally expressed on …. The test is described as follows: cell-based or functional assay.
The target is the same in test [7]. The test is described as follows: FACS on Jurkat cells (natural hCD3), fluorescent anti-human IgG secondary antibody. How it is done:
as §1
HEK293-hCLDN18.2 or Jurkat cells were collected and re-suspended with FACS buffer (PBS+1% BSA+0.5 mM EDTA), after adjusting the cell concentration, 1E5 cells per well were added into a 96-well plate, and then the antibody after gradient dilution was added according to the preset concentration, wherein the negative control was human IgG1AA (Negative-IgG1AA), the positive control of CLDN18.2 was antibody 6#AA, and the positive control of CD3 was antibody h160C9AA. […]

Where a chain is given by its changes, count along the chain named. Numbers in names are those of the source.

T1 sequence (P07766 23-126, chain 1 of 2): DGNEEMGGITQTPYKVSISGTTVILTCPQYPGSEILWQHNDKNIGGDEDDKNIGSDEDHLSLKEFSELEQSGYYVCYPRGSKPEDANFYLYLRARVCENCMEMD
T1 sequence (P04234 22-105, chain 2 of 2): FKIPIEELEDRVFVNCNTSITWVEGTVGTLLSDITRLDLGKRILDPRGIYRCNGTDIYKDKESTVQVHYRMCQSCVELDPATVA
T2 sequence (P07766 23-207): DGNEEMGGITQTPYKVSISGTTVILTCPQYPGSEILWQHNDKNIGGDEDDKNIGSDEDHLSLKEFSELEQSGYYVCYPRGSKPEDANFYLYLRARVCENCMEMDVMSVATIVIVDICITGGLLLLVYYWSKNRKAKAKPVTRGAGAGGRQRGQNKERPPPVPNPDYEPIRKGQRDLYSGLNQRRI

B1: 31905-44AA (bispecific antibody, human IgG1, kappa, L234A L235A)
heavy 1: not shown
heavy 2: QVQLVQSGAEVKKPGASVKVSCKASGYIFTNYWIHWVRQAPGQGLEWMGRIYPGTGNTYYNEKFTGRVTMTRDTSTSTVYMELSSLRSEDTAVYYCAREGYGKGNSMDYWGQGTTVTVSSASTKGPSVFPLAPSSKSTSGGTAALGCLVKDYFPEPVTVSWNSGALTSGVHTFPAVLQSSGLYSLSSVVTVPSSSLGTQTYICNVNHKPSNTKVDKKVEPKSCDKTHTCPPCPAPEAAGGPSVFLFPPKPKDTLMISRTPEVTCVVVDVSHEDPEVKFNWYVDGVEVHNAKTKPREEQYNSTYRVVSVLTVLHQDWLNGKEYKCKVSNKALPAPIEKTISKAKGQPREPQVCTLPPSRDELTKNQVSLSCAVKGFYPSDIAVEWESNGQPENNYKTTPPVLDSDGSFFLVSKLTVDKSRWQQGNVFSCSVMHEALHNRYTQKSLSLSPGK
light: not shown
notes: Full-length 6#AA with one anti-CD3 scFv of h160C9AA on the C-terminus of one heavy chain; knob-into-hole; Fc with L234A/L235A; also called anti-CD3-CLDN18.2 bispecific antibody; CD3 monovalent antibody
Broadly, the Kd is the free concentration of one partner at which half of the binding sites on the other are occupied at equilibrium, for simple one-to-one binding. A lower Kd goes with higher affinity. Usually koff stands for a measure of how fast the partners let go of each other. A low value points to a long-lived complex. As usually defined, the kon is a measure of how fast the partners come together. Lower therefore signals slow association. In general, EC50 refers to the midpoint of the concentration-response curve. Read a high EC50 as a less potent agent. For the molecule B1, in the test with human CD3 E&D protein, the affinity, expressed as Kd, was 17.9 nM; the off-rate (koff) turned out to be 0.00365 s⁻¹; the on-rate (kon) was 204000 M⁻¹ s⁻¹. In test [1], a half-maximal response (EC50) required 9.3 nM and the “Top mean fluorescence intensity (Top MFI)” value stood at 1700 MFI. In test [2], the “T cell activation, CD25+CD69+ %” value stood at 33.4%; the “T cell activation, EC50” value turned out to be 0.049 nM; the “TDCC activity, EC50” value was 0.54 nM; the “TDCC activity, Maximum lysis (%)” value was 30%. In test [3], the “ADCC activity, EC50” value worked out at 0.532 nM and the “ADCC activity, Maximum lysis (%)” value turned out to be 7.03%. In test [4], the 50% effective concentration (EC50) turned out to be 1.18 nM and the “Top mean fluorescence intensity (Top MFI)” value came out at 31000 MFI. Further, in test [5], the midpoint of the response, the EC50, lay at 0.84 nM and the “MFI (Max)” value worked out at 41800 MFI. In test [6], the “Jurkat-NFAT luciferase reporter, EC50” value was found to be 124 nM and the “Jurkat-NFAT luciferase reporter, Fluorescence value (Max)” value (“Jurkat-NFAT luciferase reporter … (Max)” below) was 114000.

B2: 6#AA (antibody, human IgG1, kappa, L234A L235A, V domains shown)
VH: QVQLVQSGAEVKKPGASVKVSCKASGYIFTNYWIHWVRQAPGQGLEWMGRIYPGTGNTYYNEKFTGRVTMTRDTSTSTVYMELSSLRSEDTAVYYCAREGYGKGNSMDYWGQGTTVTVSS
VL: DIVMTQSPDSLAVSLGERVTMNCKSSQSLLNAGNQKNYLTWYQQKPGQPPKLLFYWASTRESGVPDRFSGSGSGTDFTLTISSVQAEDVAVYHCQNAYYYPYTFGGGTKLEIKR
notes: Anti-human CLDN18.2 full-length antibody, IgG1 Fc with L234A/L235A
Regarding B2, the binding result in test [7] is given as “no binding (tested: about 2e-7 M (log M about -6.7))”. Also, in test [1], the “Top mean fluorescence intensity (Top MFI)” value was determined as 26 MFI. In addition, in test [2], the “T cell activation, CD25+CD69+ %” value stood at 3.18%; the “TDCC activity, EC50” value is 1.45 nM; the “TDCC activity, Maximum lysis (%)” value worked out at 16.3%. For the same molecule, in test [3], the “ADCC activity, EC50” value stood at 0.771 nM and the “ADCC activity, Maximum lysis (%)” value came out at 6.92%. Besides, in test [4], it took 0.95 nM to reach a half-maximal effect (EC50) and the “Top mean fluorescence intensity (Top MFI)” value is 18600 MFI. In test [5], the half-maximal effective concentration (EC50) stood at 0.62 nM and the “MFI (Max)” value is 39500 MFI. Moreover, the “Jurkat-NFAT luciferase reporter … (Max)” value in test [6] was determined as 0.

B3: h160C9AA (antibody, human IgG1, lambda, L234A L235A, V domains shown)
VH: EVKLVESGGGLVQPGGSLKLSCAASGFTFNTYAMNWVRQAPGKGLEWVARIRSKYNNYATYYADSVKDRFTISRDDAKNTLYLQMNNLRTEDTAVYYCVRHGNFGNSYVSWFAYWGQGTLVTVSS
VL: QAVVTQEPSLTVSPGGTVTLTCRSSTGAVTTSNYANWVQQKPGQAPRGLIGGTNKRAPGTPARFSGSLLGGKAALTLSGAQPEDEAEYYCALWYSNLWVFGGGTKLTVLG
notes: Anti-CD3 full-length antibody, Fc with L234A/L235A
Take B3: in test [1], the EC50 was found to be 0.13 nM and the “Top mean fluorescence intensity (Top MFI)” value came out at 2020 MFI. Moreover, in test [4], the “Top mean fluorescence intensity (Top MFI)” value was found to be 897 MFI. For the same molecule, the “MFI (Max)” value in test [5] was 1040 MFI. Further, in test [6], the “Jurkat-NFAT luciferase reporter, EC50” value is 0.32 nM and the “Jurkat-NFAT luciferase reporter … (Max)” value amounted to 220000.

Values taken from patent US20240010748A1 (SHANGHAI QILU PHARMACEUTICAL RESEARCH AND DEVELOPMENT CENTRE, published 2024).
